{"source": "paper PMC4108407", "about": "“6-Hydroxy-3-Succinoylpyridine Hydroxylase Catalyzes a Central Step of Nicotine Degradation in Agrobacterium tumefaciens S33” (PLoS ONE, 2014)", "test_in_all_cases": "purified protein", "key": {"O=C(O)CCC(=O)c1ccc(O)nc1": {"test_system": "O=C(O)CCC(=O)c1ccc(O)nc1", "details": "50 mM phosphate buffer pH 8.0, 30°C, co-substrate NADH, FAD"}, "[1]": {"test_system": "NC(=O)C1=CN([C@@H]2O[C@H](COP(=O)(O)OP(=O)(O)OC[C@H]3O[C@@H](n4cnc5c(N)ncnc54)[C@H](OP(=O)(O)O)[C@@H]3O)[C@@H](O)[C@H]2O)C=CC1", "details": "50 mM phosphate buffer pH 8.0, 30°C, co-substrate HSP, FAD"}, "[2]": {"test_system": "NC(=O)C1=CN([C@@H]2O[C@H](COP(=O)(O)OP(=O)(O)OC[C@H]3O[C@@H](n4cnc5c(N)ncnc54)[C@H](O)[C@@H]3O)[C@@H](O)[C@H]2O)C=CC1", "details": "50 mM phosphate buffer pH 8.0, 30°C, co-substrate HSP, FAD"}}}
{"substance": "HSP hydroxylase (6-hydroxy-3-succinoylpyridine hydroxylase) (Agrobacterium tumefaciens)", "values": [{"measurement": "Km", "setting": "O=C(O)CCC(=O)c1ccc(O)nc1", "result": "150 ± 20", "unit": "µM"}, {"measurement": "Km", "setting": "[1]", "result": "350 ± 40", "unit": "µM"}, {"measurement": "Km", "setting": "[2]", "result": "100 ± 10", "unit": "µM"}]}
